How the values were obtained:
[1] = Ligand binding affinity of proteins for selected ligands (FIG. 5): retinoic acid; settings: mutant relative to native ERABP; see FIG. 5
[2] = Ligand binding affinity of proteins for selected ligands (FIG. 5): retinol; settings: see FIG. 5
[3] = Ligand binding affinity of proteins for selected ligands (FIG. 5): retinal; settings: see FIG. 5

B1: ERABP (Arg 80 and Glu63 to isoleucine): Epididymal Retinoic acid Binding Protein with Arg 80 and Glu63 mutated to isoleucine (protein, UniProt P06911 1-188, looked up, variant E63I R80I)
chain: MENIMPFALLGLCVGLAAGTEGAVVKDFDISKFLGFWYEIAFASKMGTPGLAHKEEKMGAMVVELKENLLALTTTYYSEDHCVLIKVTATEGDGPAKFQVTILSGKKEVVVEATDYLTYAIIDITSLVAGAVHRTMKLYSRSLDDNGEALYNFRKITSDHGFSETDLYILKHDLTCVKVLQSAAESRP
In the case of B1, the “affinity for retinoic acid” value [1] is reported as “reduced affinity”, the binding of retinol [2] is reported as “bind” and the binding of retinal [3] is reported as “bind”.
